Source: the nanobody polyreactivity screen of Harvey et al. (2022)

Assay: yeast display, Sf9 membrane polyspecificity reagent, FACS + sequencing; frameworks hold sequencing errors
How it was run: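 Nanobodies from a synthetic yeast display library (Saccharomyces cerevisiae BJ5465), induced 36–48 hours with galactose, were stained 1 hour at 4 °C with 10% biotinylated, detergent-solubilized Sf9 membrane reagent, enriched on streptavidin microbeads, then FACS-sorted. Anti-HA (expression) and streptavidin (reagent binding) fluorescence set low and high (top ~1%) gates. Polyreactivity labels come from the gate of origin. Genes were colony-PCR amplified, MiSeq 2 × 250 sequenced and filtered by CDR length.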

| Sequence | polyreactivity (PSR sort gate) |
| --- | --- |
| QVQLVESGGGLVQAGGSLRLSCAASGFTFSRYAMGGYRQAPGKERELVAAISIRGGNTYYADSVKGRFTISRDNAKNTVYLQMNSLKPEDTAVYYCAAAGRYLRYAYWGQGTQVTVSS | high polyreactivity |
| QVQLVESGGALVQAGGSLRLICAASGSILYAYAMGWYRQAPGKERELVATNSYRGDRTRYADSVKGRFTISRDNAKNTVYLQMNSLKPEDTAVYSCAAKRKTSVPPVVKWSGYWGQGTQVTVSS | high polyreactivity |
| QVQLVESGGGLVQAGGSLRLSCAASGSTFTYYAMGWYRQAPGKERELVAAITGGGSTNYADSVKGRFTISRDNAKNTVYLQMNSLKPEDTAVYYCAARTARYYYGWRYTGEYGYWGQGTQVTVSS | high polyreactivity |
| QDQLVESGGGLVQAGGSLRLSCAASGRIFRRNTQGWSRQAPGKERELVAAITSSGGSTFADSVKGRFTISRDNAKNTVYLQMNSLKPEDTAVYYCATYVAYHRGYRTYDHWGQGTQVTVSS | low polyreactivity |
| QVQHVESGGGLVQAGGSLRLSCAASGFIFVRNTMGWYRQAPGKERELVATITRRGGSTSYADSVKGRFTISRDNAKNTVYLQMNSLKPEDTAVYFCNARSVYGSKQEEYWGQGTQVTVSS | high polyreactivity |
| QVQLVESGGGLVQAGGSLRLSCADSGIIFRYYAMGWYRQAPGKERELVADISRRGGSTYYADSVKGRFTISRDNAKNTVYLQMNSLKPEDTAVYYCAAKYRVYNYSPWGPYNYWGQVTQVTVSS | high polyreactivity |
| QVQLGESGGGLVQAGGSLRLSCAASGRTLSYYAMGWYRPAPGNDRELVAAISGSAGSTYYADSVKGRFTISRDNAKNTVYLQMNSLKPEDTAVYYCAAYIYSYDEGYYWGQGTQVTVSS | high polyreactivity |
| QVQLVESGGGLVQAGGSLRLSCAASGRTMAVYAMGWDRQAPGKEREVVAAISWSGGTTYYADSVKGRFTISRDNAKNTVYLQMNSLKAEDTAVYYCAADSYTEVDYWGQGTQVTVSS | low polyreactivity |
| QVQLQESGGGLVQASGSLRLSCAASGNIFPDYVMGWYRLAPGKEREFVANITGGSTTNYADSVKGRFTIIRDNAKNTVYLQMNSLKAEDTAVYYCAVNFGTVVLYLYWGQGTQVTVSS | high polyreactivity |
| QVQLVESGGGLVQAGGSLRLSCAASGSIFYDNAMGWYRQAPGKERELVAAIDDSDRTYYADSEKGRFTISRDNAKNTVYLQMNSLKPEDTAVYYCARDRWKWHYGYDYWGQGTQVTVSS | low polyreactivity |
| QVQLVESGGGLVQAGGSLRLSCAASGSIFKEYAMGWYRQAPGKERELVATISWSGGSTYYADSVKGRFTISRDNAKNTVYLQMNSLKPEDTAVYYCNKSTPWWYVVRYDYWGQGTQVTVSS | high polyreactivity |
| QVQLVESGGGLVQAGGSLRLSCAASGRIFGYYAMGWYRQAPGKEREFVAGITQRTDSTYYADSVKGRFTISRDNAKNTVYLQMKSLKPEDTAVYYCAARGYGGYHWGYYWGQGTQVTVSS | high polyreactivity |
| QVQLVESGGGLVQAGGSLRLSCAACGSIFYYYAMGWYRQAPGKERELVAAITVSGGRTYYADSVKGRFTISRDNAKNSVYLQMNSLKPEDTAVYYCAARRGRYSYYYWGQGTQVTVSS | high polyreactivity |
| QVQLVESGGGLVQAGGSLRLSCAASGLTFRVYAMGWYRQAPGKERELVAAISKRGGSTYYADSVKGRFTISRDNAKNTVYLQMNSLKPEDTAVYYCAAEPPPYEYVYWGQGTQVTVSS | high polyreactivity |
| QVQLVESGGGLVQAGGSLRLSCAASGRTFIANAMGWYRQAPGKERELVAVITLNGGSTYYADSVKGRFTISRDNAKSTVYLQMISLKPEDTAVYYCAAGRYYNLRATHGYWGQGTQVTVSS | low polyreactivity |
| QVQLVESGGCLVQAGGSLRLSWDASGSIFLGYTIGWYRQAPGKERELVAAINSSGGSTYYAYSVKGRFTISRDNAKNTVFLQMNSLKPDDTAVYYCADANSILLFDSWGQGTQVTVSS | low polyreactivity |
| QVHLVESGGGLVQAGGSLRLSCAASGITFRYYAMGWYRQAPGKERELVAVISTSGGSTYYADSVKGRFTISRDNAKNTVYLQMNSLKPEDTAVYYCAVVWPYSERYYYWGQGTQVTVSS | high polyreactivity |
| QVQLVESGGGLVQAGGSLRLSCAASGSIFYYNTMGWYRQAPGKERELVAAITSTGRTNYADSVKGRFTISRDNAKNTVYLQINSLKPVDTAVYYCAKRRFGDGDYWGQGTQVTVSS | low polyreactivity |
| QVQLVESGGGLVQAGGSLRLSCAASGRTFSFYAMGWYRQAPGKERELVAAISSGGGRTYYADSVKGRFTISRDNAKNTVYLQMHSLKPEDTAVYYCAAYRAYSGEFDYWGQGTQVTVSS | high polyreactivity |
| QVQLVESGGGLVQAGGSLRLSCAASGSIFYFNVMGWYRQAPGKERELVATITWRDASTNYADSVKARFTISRDNAKNTVYLQMNSLKPEDTAVYYCNADSDWGYFDYDYYYWGQGTEVTVSS | low polyreactivity |
| QVQLVESGGGLVQAGGSLRLSCAASGFTFGNYAMGWYRQAPGKERELVAVISYSTGSTYYADSVKGRFTISRDNAKNTVYLQMNSLKPEDTAVYYCAKRYRSYYQGYGYWGQGTQVTVSS | high polyreactivity |

| Sequence | polyreactivity (PSR sort gate) |
| --- | --- |
| QVQHVESGGGLVQAGGRLRLSCAASGIIFQYYAMGSYRQAPGKERESVAGITYPGGSTYYADSVKGRFTISRDNAKNTVYLPKNSLQPEDTAVYFCNAVGVSARYWRQLPSYRYDYWGQGTQVTVSS | low polyreactivity |
| QVQLVESGGGLVQAGGSLRLSCAASGRIFTGNTMGWYRQAPGKERELVATINSNGGSTYYADSVKGRFTISRDNAKNTVYLQMNSLKPEDTAVYYCAVVRNYVSRYRFYYWGQGTQVTVSS | high polyreactivity |
| QVQLVESGGGLVQAGGSLRLSCAASGFIFHYYAMGRYRQAPGKERELVAAISWNGGSTNYSDSVKGRFTISRDNAKNTVYLQMNSLKPEDTAVYYCATTDPYYDVDYWGQGTQVTVSS | low polyreactivity |
| QVQLVESGGGLVQAGGSLRLSCAASGSTYRTYAMGWYRPAPGKERELVAAISSSGGSTYYADSVKGRFTISRDNAKNTVYLQMNSLKPEYTAVYYCNAGRSHRPHYDYWGQGTQVTVSS | high polyreactivity |
| QVQLVESGGGLVQAGGSLRLSCAASGRTFKYYTMGWYRQAPGKERELVAAITGSGGSTYYADSVKGRFTISRDNAKNTVYLQMNSLKPEDTAVYYCAAYRTFSREYYYWGQGTQVTVSS | high polyreactivity |
| QVQLVESGGGLVQAGGSLRLSCAASGFTFSVNAMGWYRQAPGKERELVAAITWSGGSTYYADSVKGRFTISRDNAKNTDYLQMNSLKPEDTAVFYCNARAQSSWGFWYDYWGQGTQVTVSS | high polyreactivity |
| QVQLVESGGGLVQAGGSLRISCAASGSTFSRNAMVWYRQAPGKERELVATISRSGRTNYADSVKGRFTISRDNAKNTVYLQMNSLKPEDTAVYYCNAGYRRSYEYWGQCTQVTVSS | low polyreactivity |
| QVQLVESGGGLVQAGGSLRLSCAASGRTFGYNAMGWYSQAPGKERELVAAISWSGGRTYYADSVKGRFTISRDNAKNTVYLQMNSLKPEDTAVYYCAALPSVTNRYYIYGYWGQGTQVTGSS | high polyreactivity |
| QVQLVESGGGLVQAGGSLRLSCAASGSTIQQYAMGWYRQAPGKEREFVAAISWRGGRTYYADSVKGRFTISRDKAKNTVYLQMNSLKPEDTAVYYCAVDPSIYRLSAYYYDYWGQGTQVTVSS | low polyreactivity |
| QVQLVESGGGLVQAGGSLRLSCAASAITVKRDVMGWYRQAPGKERELVAAISRTGGSTYYADSVKGRFTISRDNAKNTVYLQMNSLKPEDTAVYYCAAATCPGIYDYWGQGTQVTVSS | high polyreactivity |
| QVQLVESGGGLVQAGGSLRLSCAASGRTFGGNAMGWDRQAPGKERELLAAITGRGGSTYYADSLKGRFTISRDNAKNTVYLQMNSLKPEDTAVYYCNADGSAYIEDGYDYWGQGTQVTVSS | low polyreactivity |
| QVQLVESGGGLVQAGGSLRLSCAASGSIFSENAMGWYRQAPGKERELVAAITGGASTNYADSVKGRFTISRDNAKNTVYLQMNSLKPEDTAVYYCAADANRTKFDYWGQGTQVTVSS | low polyreactivity |
| QVQLVESVVGLVQAGVSLRLSCAASGSIFEQYAMGWYRQAPGKERELVAAISKRGTSTYYADSVKGRFTISRDNAKNTVYLQINSLKPEDNAVYDCAATNRWYYRAAASVYAFGYWGLGTQVTVSS | high polyreactivity |
| QVQLVDSGGGLVQAGGRLRLSCAASGYILTHYAMGWYRQAPGKERELVAAITRVGNTNYADSVKGRFTISRDNAKNTVYLQMNSLKPEDTAVYSCAADGVASLFGDPPTEFDYWGQGTQVTVSS | low polyreactivity |
| QVQLEDSGGGLVQAGGSLRLSSAASGSTFAVYAMGWYRQAPGKERELVAAISFSGSTYADSVKGRFTISRDNAKNTVYLQMNSLKPEDTAVYYCAKEYRVFGWWYTKGDYWGQGTQVTVSS | low polyreactivity |
| QVQLVESGGVLVQAAGSLRLSCAASGSIFDVNAMGWNRQAPGKEREFVAAISDSGGSTYYADSVKGRFTISRDNGKNTVYLQMNSLKPEDTAVYYCNADWSWYNYYDFDYWGQGTQVTVSS | low polyreactivity |
| QVQLVESGGGLVQAGGSLRLSCAASGRTFVTYAMGWYRQAPGKERELVATINYSGGSTNYADSVKGRFTISRDNAKNTVYLQMNSLKPEDTAVYYCNTVPRQHRPGDYWGQGTQVTVSS | low polyreactivity |
| QVQLVESGGGLVQAGGSLRLSCAASGRTFYGYAMAWYRQAPGKERELVAAISVSGGSPYYADSVKGRFTISRDNAKNTVYLQMNSQKPEDTAVYYCIAKYSYRRWYDFDYWGQGTQVTVSS | low polyreactivity |
| QVQLVESGGGLVQAGGSLRLSCAASGSIFSSNAMGWYRQPPGKERELVAAITSGGSTYYADSVKGRFTISRDNAKNTVYLQMNSLKPEDTAVYYCAASYWGFQRMYYWGQGTQVTVSS | high polyreactivity |
| QVQLVESGGGLVQAGGSLRLSCAASGIIFFEYVMGWYRQAPGQERELVAAINRSGGRTYYADSVKGRFTISRDNAKNTVYLQMNSLKPEDTAVYYCAAEHYTGSGGYDYWGHGTQVTVSS | high polyreactivity |
